In publication PMC5496915, “Interactions between LHX3- and ISL1-family LIM-homeodomain transcription factors are conserved in Caenorhabditis elegans” (Scientific Reports, 2017):

Biological target: T1, CEH-14_(LIM1+2) as it stands in the tethered CEH-14–LIM-7 complex (C. elegans, UniProt P20271 42-168)
T1 construct: CEH-14, C. elegans, tandem LIM domains LIM1+2, residues 42-168; Joined on one chain with m29 through an 11-residue Gly/Ser linker; the whole chain is m27; also called LIM domains from CEH-14
T1 sequence (looked up): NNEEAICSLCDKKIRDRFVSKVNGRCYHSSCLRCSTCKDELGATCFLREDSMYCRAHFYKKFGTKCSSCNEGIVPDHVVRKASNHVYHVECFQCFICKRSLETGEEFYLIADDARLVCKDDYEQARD
Test: SAXS; tethered complex on one chain, 5.2 mg/mL, 50 mM Tris, 100 mM NaCl, 5 mM TCEP pH 8.0 (the legend says 20 mM Tris pH 8.0, 150 mM NaCl, 1 mM TCEP), 10 °C; low-resolution shape restoration
Conditions: both partners purified

B1: LIM-7LID as it stands in the tethered CEH-14–LIM-7 complex (domain or fragment, C. elegans)
chain: GIGPLMVQPATPHIDNTLGGPIDIQHFAQW
notes: Joined on one chain with m28 through an 11-residue Gly/Ser linker; the whole chain is m27; also called LID from LIM-7
B1: binds.
